Measured values as given in the nanobody polyreactivity screen of Harvey et al. (2022).

Experiment: yeast display, Sf9 membrane polyspecificity reagent, FACS + sequencing; frameworks hold sequencing errors
Summary of the method: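 After 36–48 hours of galactose induction, yeast (Saccharomyces cerevisiae BJ5465) displaying a synthetic nanobody library were stained at 4 °C for 1 hour with 10% biotinylated, detergent-solubilized Sf9 membrane reagent. Streptavidin microbeads enriched the stained cells before FACS sorting into low and high (top ~1%) gates on anti-HA and streptavidin fluorescence. Each clone's polyreactivity label reflects its gate of origin.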

| Sequence | polyreactivity (PSR sort gate) |
| --- | --- |
| QVQLVESGGGLVQAGGSLRLSCAASGSISYFNDMGWYRQAPGKERELVAAIRDSGGITYADSVKGRFTISRDNAKYTVYLQMNSLKPEDTAVYYCATYGNEIYDYWGQGTQVTVSS | low polyreactivity |
| QVQLVESGGGLVQAGGSLRLSCAASGLIFGSYVMGWYSQAPGKERELVAAISTSGGRTYYADSVKGRFTISRDNATNTVYLQMNSLKPEDTAVYFCAASRWHGYNYWGQGTQVTVSS | high polyreactivity |
| QVQLVESGGGLVQAGGSLRLSCAASGFIFVKYAMGWYRQAPGKERELVAAISWSGGTTYYADSVKGRFTISRDNANNTVYLQMNSLKPEDTAVYYCAAEYYTGYFKYDYWGQGTQVTVSS | high polyreactivity |
| QVQLVESGGGLVQAGGSLRLSCAASGLIFSLNAMGWYRHATGKERELVAAISSDDSTYYADSVKGRFTISRDNAKNNVYLQMNSLTPEDTAVYYCAAVQLVPGYVDSNDYYWGQGTQVTVSS | low polyreactivity |
| QVQLVESGGGLVQAGGSLRLRCAASGGIFGRYAMGWNRQAPGKERELVAAISSRGGSTYYADSVKGRFTISRDNAKNTVYLQMNSLKPEDTAVYYCNALWVSYYTFRMDYWGQGTQVTVSS | high polyreactivity |
| QVQLVESGGGLVQAGGSLRLRCAASVRIFRVYAMGRYSQAPGKERELVAAISSSGGSTYYADSVKGRFTMSRDNAKNTDYLQMNSLKPEDTAVYYCAAGGLHTIQRPGYYYWGQGTQVTVSS | low polyreactivity |
| QVQLVESGGGLVQAGGSLRLSCAASGFIFYKYAMGWYRQAPGKERELVAAISRRGGNTYYADSVKGRFTISRDNAKNTVYLQMNSLKPEDTAVYYCIAVLYFPYEYWGQGTQVTVSS | high polyreactivity |
| QVQLVESGGGLVQAGGSLRLSCAASGRIFYWYAMGWYRQAPGKERELVAAISSTGRTKYADSVKGRFTISRDNAKNTVDLQMNSLKPEDTAVYYCAKRRAAVNGRSDYYYWGQGTQVTVSS | high polyreactivity |
| QVQLVESGGGLVQAGGSLRLSCAASGGIFNYYVMGWYRQAPGIERELVAAISNGGSPNYADSVKGRFTISRDNAKNPVYLQMNSLKPEDTAVYYCAAHTYSELSWLVVYPYDYWGQGTQVTVSS | low polyreactivity |
| QVQLVESGGGLVQAGGSLRLSCAASGSTFNDYVMGWYRQAPGKERELVAAISRSGGSTYYADSVKGRFTISRDNAKNTVYLQMNSLKPEDTAVYYCAAASPGPWRYDYWGQGTQVTVSS | high polyreactivity |
| QVQLVESGGGLVQAGGRLPLSCAASGSTIYINAMGWYRQPPGKQRELVAPISYSGGSSYFADSVKGRFTISRDYAKNTVYFQKNSLIPEDTRVYYCYARGLQSFYPGYWFRGDFWGQGTQVTVSS | high polyreactivity |
| QVQLVESGGGLVQAGGSLRLSCAASGSNFSSNAMGWYRQAPGKERELFAAITWSGGSTYYADSVKGRFTISRDNAKKTVYFEMNSLKPEDTAGFYCNARRNVRQTFGYEYWGQGTQVTVSS | high polyreactivity |
| QVQLEESGGGLGQAGGSLRLTCAASGSIFRQYAMGWYRQAPGKERDLVATISRSGGSTYYADSVKGRFTISRDNAKNTVYLQLNSLKPEDTAVYYCAASRYNKSYREWWVGSWGQGTQVTVSS | high polyreactivity |
| QVQLVESGGGLVQAGGSLRLSCAASGSTFRYYAMGWYRQAPGKERELVASITWSGGSTYYADSVKGRFTISRDNAKNTVYLQMNSLNPEDTAVYYCAARQYIGSPPHRRRFDYWGKGTQVTVSS | high polyreactivity |
| QVQLVESGGGLVQAGGSLRLICAASGIIFYRYAMGWYRQAPGKEREFVAAISRGGGSTYYADSVKGRFTISRDNAKNTVYLQMNSLKPEDTAVYYCNARVTRVTVDQYSIKSMDYWGQGTQVTVSS | high polyreactivity |
| QVQLVESGGGLVQAGGSLRLSCAASGFIFDDYAMGWYRQAPGKERELVAAISASGGRTFYADSVKGRFTISRDNAKNTVYLQMNSLKPEDTAVYYCATIVDTYVFRYYYWGQGTQVTVSS | high polyreactivity |
| QVQLVESGGGLVQAGGSLRLSCAASGLTFSFNAMGWYRQAPGKEREFVAAISWSGGSTYYADSVKGRFTISRDNAKITVYLQMNSLKPEDTAVYYCAAESRITRYRHTRYYYWGQGTQVTVSS | high polyreactivity |
| QVQLVESGGGLVQAGGSLRLSCAASGITFNEYAMGWYIQAPGKERELVAAISRRGGSTYYADSVKGRFTISRDNAKNTVYLQMNSLKPEDTAVYYCAAYYPSHEYSGFWSDTYEYWGQGTQVTVSS | low polyreactivity |
| QVQLVESGGGLVQAGGSLRLSCAASGSILLPYAMGRYRHAPGKERELVAAITYRGASTHYAASVKGRFTISRDNAKNTVYLQMNSLKQEDPAVYYCAARGWVYYASEMDYWGQGTQGTVSS | low polyreactivity |
| QVQLVESGGGLVQAGGSLRLSCAASGRTFTVYAMGWYRQAPGKEREFVATISWSGGRTYYADSVKGRFTISRDNAKNTVYLQMNSLKPEDTAVYYCSAQEYTTRFYFNRDYWGQGTQVTVSS | low polyreactivity |
| QVQLVESGGGLVQAGGSLRLTSAASGRIFSHNAMGWCRPAPGKERELVAAITVGGGSTFYADSVKGRFTISRDNAKNTVYLQMNSLKPEDTAVYYCAADYYTQWQTRYDYWGQGTQVTVSS | low polyreactivity |
| QVQLVESGGGLVQAGGSLRLSCAASGSTFRRYAMGSYRQAPGKERELVAAISVSGGRTSYADSVKGRFTISRDNAKNTVYLQMNSLKPEDTAVYYCNADYYKRMDYWGQGTKVTVSS | high polyreactivity |

| Sequence | polyreactivity (PSR sort gate) |
| --- | --- |
| QVQLVESGGGLVQAGGSLRLSCAASGITLIRYAMGWYRQAPGKERELVAAINSSGGNTYYADSVKGRFTISRDNAKNTVYLQMNSLKPEDTAVYYCAAKYILDIIGSLDYWGQGTQVTVSS | low polyreactivity |
| QVQLVESGGGLVQAGGSLRLSCAASGYTFSFNAMGWYRKAPGKEREMVAAINRGTSTNYADSVKGRFTISRDNAKNTVYLQMNSLKPEDTAVYYCAAGFRRRAGRYDLDYWGQGTQVTVSS | high polyreactivity |
| QVELVESGGGLVQAGGCLRLSCAASGGIFESYAMGWYRRAPGRERELVADSTSGGSTNYADSVKGRFTIAGDNAKNTLYLQMNSLKPEDTAVYYCAKEFYYSVGVNLGDSWGQGTQGTVSS | low polyreactivity |
| QVQLVESGGGLVQAGGSLRLSCAPSGRIFQYYTMGWSRQAPGKDRELVATISRRGGRTYYADSVKGRFTISRDNAKNTVYLQKNSLKPEDTAVYYCAARTYSYEYDYWGQGTQVTVSS | high polyreactivity |
| QVQLVESGGGLVQAGGSLRLSCAASGSTIFENVMGWYRQAPGKEREFVAAINTSGGSTYYADSVKGRFTISRDNAKYTVYLQMNSLKPEDTAVYYCARDSYWEMDYWGQGTQVNVSS | low polyreactivity |
| QVQLVESGGGLVQAGGSLRLSCAASGFIFKRYAMGWYRQAPGKERELVAAITSGGSTHYADSVKGRFTISRDNAKNTVYFQMNSLKPEDTAVYYCASRRYKWGVRYDYWGQGTQVTVSS | high polyreactivity |
| QVQLVESGGGLVQAGGSLRLSCAASGSIFYYNAMGWYRQAPGKERELVATITSAVSTNYADSVKWRFTISRDNAKNTVYLQMNSLKPEDTAVYYCAADVVYISGYDYWGQGTQVTVSS | low polyreactivity |
| QVQLVESGGGLVQAGGSLRLSCAASGSIFYENAMGWYRQAPGKERELVAAISRSGGSTYYADSVKGRFTISRDNAKNSVYLQMNSLKPEDTAVYYCAADVYVFIGDYWGQGTQVTVSS | low polyreactivity |
| QVQLVESGGGLVQAGGSLRLSCAASGSILDGYAMGWYIQAPGKARELVAAITTGGGSTYYADSVKGRFTISRDNAKNTVYLQMNSLKPEDTAVYYCAAYRKPGSWTWWVRGYGYWVQGTQVTVSS | low polyreactivity |
| QVQLVESGGGLVQAGGSLRLSCAASGFTFDDNAMGWYRQAPGKERELVATISYSDGNTYYADSVKGRFTISRDNAKNTVYLQMNSLKPEDTAVYYCAADEWAVYYIGLDYDYWGQGTQVTVSS | low polyreactivity |
| QVQLVESGGGLDHAGGSLRLSCAASGRTFLGYAMGWYRQAPGKERELVAAISSSGGSTYYADSVKGLFTISRDNAKNTVYLQTNSLKPEDTAVYYCAKRKPATCASGHRFGYWGQGTQVTVSS | high polyreactivity |
| QVQVVESGGGLVQAGGSLRLSCAASGRTFNPNVMGWYRQAPGKERELVAAISRGGSTYYADSVKGLFTISRDNAKNTVYLQMNSLKPEDTAVYYCAATHYGHSISNWFDYWGQGTQVTVSS | high polyreactivity |
| QVQLVESGGGLVQAGGSLRLSCAASGYTIGNNAMGWYRQAPGKERELVARIRTNGGTTYYADSVKGRFTISRDYAKNTVYLQMISLKPEDTAVYYCIAYRGYEYDYWGQGTQVTVSS | low polyreactivity |
| QVQLVESGGGLVQAGGSLRLSCAASGFTFGPYAMGWSRQAPGKEREFVAAITSSGGSTYYADSVKGRFTISRDNAKNTVYLQMNSLKPEDTAVYYCNARSRGYVGKTPRRYYYWGQGTQVTVSS | high polyreactivity |
| QVQLVESGGGLVQAGGSLRLSCAASGSIFGYNTMGWSRQAPGKERELVASISYSGGSTYYADSVKGRFTISRDNAKNTVYLQMNSLKPEDTAVYYCNTGSRYRPNRRYGYWGQGTQVTVSS | high polyreactivity |
| QVQLQGSGGGLAQAGDSLRLSCAASGTIFSEYNNGLVSPGAGQRTRTCCRYWCWGNTYYADSAKGRFTTSRDNAKNTVYLQKHSLKPADTAVYYCAFNRPFPSRHIYRGQGTQVTVSS | high polyreactivity |
| QVQLVESGGGLVQAGGSLRLSCAASGIIFAYYAMGWYRQAPGKERELVASITNTGSTYYADSVKGRFTISRDNAKNTVYLQMNSLKPEDTAVYYCNAVLSSNTKWRYPGDYWGQGTQVTVSS | low polyreactivity |
| QVQLVESGGGLVQAGGSLRLSCAASGRIFPRYALGGYRQAPGKERELVAGISRSGGSTYYADSVKGRFTISRDNAKNTVYLQMNSLKPEDTAVYYCNTGGHYGARKYDYWGQGTQVTVSS | low polyreactivity |
| QVQLVESGGGLVQAGGSLRLSCAASGRIFADYAMGWYRQAPGKERELVADIRQSGGRTYYADSVKGRFTISRDNAKNTVYFQINRLKPEDTAVYYCATDYGSWGDYSGKYDYWGQGTQVTVSS | low polyreactivity |
| QVQLVESGGGLVQAGGSLRLSCADSGFTFIKYAMGWYRQAPGKEREFVATISWNGGNTYYADSVKGRFTISRDNAKNTVYLQMNSLKPEDTAVYYCAARVKYRTRGGTVVSYDYWGQGPQVTVSS | high polyreactivity |
| QVQLVESGGGLVQAGGSLRLSCAASGLSLGVYTLGWYRQAPGKEREFVASINYGGGSTYYADSVKGRFTISRDNAKNTVYLQMNSLKPEDTAVYYCNARSRWGGTRLYSYDYWGQGTQVTVSS | low polyreactivity |
